Where a chain is given by its changes, count along the chain named.

T1: recombinant human IGFBP-1 (human, UniProt P08833 26-259)
T1 construct: also called rhIGFB-1
T1 sequence (looked up): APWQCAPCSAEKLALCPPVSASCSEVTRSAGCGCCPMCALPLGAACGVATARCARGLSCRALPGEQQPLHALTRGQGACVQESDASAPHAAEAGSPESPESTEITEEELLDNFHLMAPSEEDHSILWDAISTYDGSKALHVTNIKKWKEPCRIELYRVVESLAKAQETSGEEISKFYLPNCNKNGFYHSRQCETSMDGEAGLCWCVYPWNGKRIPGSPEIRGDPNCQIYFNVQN

T2: recombinant human EpCAM (human, UniProt P16422 24-265)
T2 construct: also called rhEpCAM
T2 sequence (looked up): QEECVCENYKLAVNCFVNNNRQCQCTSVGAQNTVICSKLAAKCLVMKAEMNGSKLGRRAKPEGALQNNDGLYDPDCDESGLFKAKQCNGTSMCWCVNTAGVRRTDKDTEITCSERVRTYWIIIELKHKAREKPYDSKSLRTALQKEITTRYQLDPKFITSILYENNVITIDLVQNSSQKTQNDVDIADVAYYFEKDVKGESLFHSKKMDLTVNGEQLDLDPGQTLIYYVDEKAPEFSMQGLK

T3: HEK-TROP2 Δ27-85 (human, UniProt P09758)
T3 construct: deletion of residues 27-85, transiently expressed on HEK cells
T3 sequence (membrane protein on transfected HEK cells, looked up): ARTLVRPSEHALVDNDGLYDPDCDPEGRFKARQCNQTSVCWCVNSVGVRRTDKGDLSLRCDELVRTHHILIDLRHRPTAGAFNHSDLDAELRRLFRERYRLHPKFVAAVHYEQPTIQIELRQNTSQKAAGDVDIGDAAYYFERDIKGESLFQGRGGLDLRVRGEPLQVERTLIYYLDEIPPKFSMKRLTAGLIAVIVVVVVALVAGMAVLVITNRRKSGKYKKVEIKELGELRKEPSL

T4: HEK-TROP2 Δ27-114 (human, UniProt P09758)
T4 construct: deletion of residues 27-114, transiently expressed on HEK cells
T4 sequence (membrane protein on transfected HEK cells, looked up): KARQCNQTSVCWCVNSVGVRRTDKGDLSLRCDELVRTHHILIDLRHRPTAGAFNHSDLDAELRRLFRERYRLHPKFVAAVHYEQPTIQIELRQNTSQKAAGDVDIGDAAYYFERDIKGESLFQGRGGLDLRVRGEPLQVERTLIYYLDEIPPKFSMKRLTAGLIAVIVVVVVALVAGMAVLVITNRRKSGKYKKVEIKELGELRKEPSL

T5: HEK-TROP2 Δ27-146 (human, UniProt P09758)
T5 construct: deletion of residues 27-146, transiently expressed on HEK cells
T5 sequence (membrane protein on transfected HEK cells, looked up): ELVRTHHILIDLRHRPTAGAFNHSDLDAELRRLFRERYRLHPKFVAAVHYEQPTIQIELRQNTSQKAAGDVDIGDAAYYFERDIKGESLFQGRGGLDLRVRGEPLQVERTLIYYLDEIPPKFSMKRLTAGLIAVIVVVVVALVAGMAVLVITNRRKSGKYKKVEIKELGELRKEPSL

T6: HEK-TROP2 Δ27-66 (human, UniProt P09758)
T6 construct: deletion of residues 27-66, transiently expressed on HEK cells
T6 sequence (membrane protein on transfected HEK cells, looked up): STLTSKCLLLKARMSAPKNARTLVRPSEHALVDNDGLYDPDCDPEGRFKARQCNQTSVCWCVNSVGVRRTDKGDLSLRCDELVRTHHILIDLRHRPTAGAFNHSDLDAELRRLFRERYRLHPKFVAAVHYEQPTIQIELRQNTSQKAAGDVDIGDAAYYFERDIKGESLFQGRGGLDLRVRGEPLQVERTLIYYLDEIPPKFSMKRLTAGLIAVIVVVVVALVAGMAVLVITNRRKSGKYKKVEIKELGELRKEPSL

T7: recombinant human TROP2 extracellular domain (aa 1-274) comprising His tag (human, UniProt P09758 27-274)
T7 construct: Used here for all assays on recombinant human TROP2 (ELISA, immunoblot, SPR, crystal), although only some of them name the catalogue number; also called human recombinant TROP2; recombinant human TROP2 protein; not shown: His tag
T7 sequence: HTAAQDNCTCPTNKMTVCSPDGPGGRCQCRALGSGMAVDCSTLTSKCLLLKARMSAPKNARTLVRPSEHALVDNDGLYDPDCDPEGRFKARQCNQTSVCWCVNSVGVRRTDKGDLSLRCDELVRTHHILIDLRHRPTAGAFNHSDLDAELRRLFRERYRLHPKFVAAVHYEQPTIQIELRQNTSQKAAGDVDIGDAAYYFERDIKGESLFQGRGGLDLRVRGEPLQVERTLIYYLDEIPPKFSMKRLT

B1: KD002 (antibody, human IgG1, V domains shown)
VH: QVQLQESGGGMVQVGGSLRLSCAASGFPFSSADMSWVRQAPGKGPEWVSYINADGSKTYYPDSVKGRFTISRDNAKNTLYLLMNNLKPEDTALYRCARAKLTDTHYVEDYWGQGTQVTVSS
notes: also called anti-TROP2 sdAb KD002
B2: KD003 (antibody, human IgG1, V domains shown)
VH: B1 VH with V14P, P28T, S31N, A32Y, D54G, K57N, Y59D, T78M
notes: also called anti-TROP2 sdAb KD003
B3: KD001 (antibody, human IgG1, V domains shown)
VH: QVQLQESGGGMVHPGGSLRLSCAASGFTFSGSDMSWVRQAPGKGPEWVSYITSGGTTYYPDSVKGRFTISRDNAKNTLYLQMNSLTPDDTALYRCAKARLTDSHYVEDAWGQGTQVTVSS
notes: also called anti-TROP2 sdAb KD001
B4: KD005 (antibody, human IgG1, V domains shown)
VH: B3 VH with M11L, H13E, P14A, T86K, A98S
notes: also called anti-TROP2 sdAb KD005
B5: KD004 (antibody, human IgG1, V domains shown)
VH: B3 VH with M11L, H13Q, G16R, S53G, G54S, I69T, T77M, T86K
notes: also called anti-TROP2 sdAb KD004
B6: KD007 (antibody, human IgG1, V domains shown)
VH: QVQLQESGGGLVQPGGSLRLSCAASGFAFSFYAMAWYRQAPGKQRDMVATITAYGNTNYADSVKGRFTTSRDNAKNTVYLQMNSLKPEDTAVYVCNANLPSASHNYWGQGTQVTVSS
notes: also called anti-TROP2 sdAb KD007

The target in one assay is T8, BSA (bovine, UniProt P02769).
T8 construct: also called bovine serum albumin
T8 sequence (P02769 25-607 limits assumed): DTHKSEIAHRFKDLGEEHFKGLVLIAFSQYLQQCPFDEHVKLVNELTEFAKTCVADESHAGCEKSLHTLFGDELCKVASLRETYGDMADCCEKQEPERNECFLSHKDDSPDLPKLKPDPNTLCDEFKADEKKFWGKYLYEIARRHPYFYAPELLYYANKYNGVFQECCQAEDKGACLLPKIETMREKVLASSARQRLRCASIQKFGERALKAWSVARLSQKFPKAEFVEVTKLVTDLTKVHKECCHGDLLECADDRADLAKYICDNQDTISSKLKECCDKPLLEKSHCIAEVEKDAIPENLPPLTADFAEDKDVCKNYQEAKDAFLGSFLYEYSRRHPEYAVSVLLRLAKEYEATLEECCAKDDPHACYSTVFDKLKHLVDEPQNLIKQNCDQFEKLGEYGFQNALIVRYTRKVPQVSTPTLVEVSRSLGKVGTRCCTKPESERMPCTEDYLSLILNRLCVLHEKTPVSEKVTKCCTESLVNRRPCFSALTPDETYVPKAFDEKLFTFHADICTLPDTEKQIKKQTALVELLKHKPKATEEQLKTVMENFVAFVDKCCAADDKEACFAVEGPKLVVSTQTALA
Nature of the assay: ELISA on coated recombinant protein, 200 nM antibody, RLU.
Regarding B1, the binding result is “no binding (tested: 200 nM)”.
As for B2, the binding result is recorded as “no binding (tested: 200 nM)”.
The same measure, in the same setting: for B3 the value was “no binding (tested: 200 nM)”; for B4, “no binding (tested: 200 nM)”.
Still for that read-out and setting: for B5 the value was “no binding (tested: 200 nM)”.

For a further assay, the target named is T1, recombinant human IGFBP-1. Described as above.
On to B1, for which the binding result was “no binding (tested: 200 nM)”.
As for B2, the binding result was “no binding (tested: 200 nM)”.
Still for that read-out and setting: for B3 the value was “no binding (tested: 200 nM)”.
B4: the binding result is listed as “no binding (tested: 200 nM)”.
Still for that read-out and setting: as for B5, the entry is “no binding (tested: 200 nM)”.

In another assay the target is T2, recombinant human EpCAM. The assay is described as above.
B1: the binding result is listed as “no binding (tested: 200 nM)”.
On the same count and under the same terms, as for B2, the entry is “no binding (tested: 200 nM)”; as for B3, “no binding (tested: 200 nM)”.
As for B4, the binding result was “no binding (tested: 200 nM)”.
Take B5: the binding result was “no binding (tested: 200 nM)”.

For a further assay, the target named is T3, HEK-TROP2 Δ27-85. Nature of the assay: flow cytometry, 100 nM antibody, transiently transfected HEK cells, APC anti-human Fc. Here is the method:
(§1) To determine the effect of TROP2 truncations on the binding ability of anti-TROP2 sdAbs, the HEK parental cells were transiently transfected with human TROP2 mutants by lipofectamine. 24 hours after transfection, cells were collected and stained with anti-TROP2 antibodies (FIG. 13A and FIG. 13B). In brief, 1×10⁵ cells were incubated with an Fc receptor blocking antibody (1/100 dilution) for 10 minutes at room temperature. Anti-TROP2 antibodies were diluted in FACS staining buffer to 100 nM and added and incubated with cells for 30 minutes on ice. After washing three times with FACS staining buffer, APC-conjugated secondary antibodies recognizing the human Fc region (Biolegend, Cat #410712) were mixed with cells. After staining for 30 minutes, cells were washed three times, followed by resuspension into 100 μL of 7-Amino-Actinomycin D (7-AAD) solution (BD Biosciences, Cat #559925).
For B1, the binding result is listed as “no binding (tested: 100 nM)”.
Still for that read-out and setting: for B2 the value was “no binding (tested: 100 nM)”; for B6, “no binding (tested: 100 nM)”; for B3, “no binding (tested: 100 nM)”.
The same measure, in the same setting: as for B4, the entry is “no binding (tested: 100 nM)”.
As to B5, the binding result is on record as “no binding (tested: 100 nM)”.

A further assay has as its target T4, HEK-TROP2 Δ27-114. Described as above. Here is the method:
as §1
Take B1: the binding result is on record as “no binding (tested: 100 nM)”.
In the case of B2, the binding result is reported as “no binding (tested: 100 nM)”.
On the same count and under the same terms, as for B6, the entry is “no binding (tested: 100 nM)”; as for B3, “no binding (tested: 100 nM)”.
Same read-out and setting: for B4 the value was “no binding (tested: 100 nM)”; for B5, “no binding (tested: 100 nM)”.

The target of another assay is T5, HEK-TROP2 Δ27-146. Described as above. The protocol:
as §1
For the molecule B1, the binding result is on record as “no binding (tested: 100 nM)”.
On the same count and under the same terms, for B2 the value was “no binding (tested: 100 nM)”; for B3, “no binding (tested: 100 nM)”.
Still for that read-out and setting: as for B4, the entry is “no binding (tested: 100 nM)”; as for B5, “no binding (tested: 100 nM)”.

The target in the next assay is T6, HEK-TROP2 Δ27-66. Described as above. The protocol:
as §1
As for B1, the binding result is on record as “no binding (tested: 100 nM)”.
Turning to B2, the binding result was “no binding (tested: 100 nM)”.
As to B3, the binding result is reported as “no binding (tested: 100 nM)”.
Still for that read-out and setting: for B4 the value was “no binding (tested: 100 nM)”.
As to B5, the binding result is listed as “no binding (tested: 100 nM)”.

The target of the next assay is T7, recombinant human TROP2 extracellular …. Nature of the assay: SPR.
As for B1, the equilibrium dissociation constant (Kd) was 0.0432 nM, the koff came out at 5.69e-05 s⁻¹ and the kon turned out to be 1.32e+06 M⁻¹ s⁻¹.
Taken in the same sequence, the figures for B2 were 0.0459 nM, 4.88e-05 s⁻¹ and 1.06e+06 M⁻¹ s⁻¹.
Turning to B3, the dissociation constant Kd amounted to 0.0826 nM, the koff is 7.54e-05 s⁻¹ and the on-rate constant (kon) worked out at 913000 M⁻¹ s⁻¹.
Turning to B4, the dissociation constant (Kd) was determined as 0.0268 nM, the koff worked out at 4.27e-05 s⁻¹ and the association rate constant (kon) turned out to be 1.59e+06 M⁻¹ s⁻¹.
In the case of B5, the Kd came out at 0.0294 nM, the off-rate constant (koff) amounted to 4.42e-05 s⁻¹ and the kon was found to be 1.51e+06 M⁻¹ s⁻¹.

The values above are taken from patent US20240360242A1 (KISOJI BIOTECHNOLOGY, published 2024).
